The term Kd denotes the constant that tells how readily two partners part at equilibrium. Read a high Kd as lower affinity. As usually defined, the koff is the first-order rate constant of dissociation. A low value points to a long-lived complex. For orientation: kon means the second-order rate constant of association. Low readings indicate slow association, high ones fast association.

The source of these data is article PMC10349087 (Nature Communications, 2023).

First the molecules themselves.
B1: NIV-10 Fab (Fab, V domains shown)
VH: EVQLVESGGGLVQPGGSLRLSCAASGFTFYSYWMTWVRQAPGKGLEWVANIKHDESESHYVDSVRGRFTISRDNAKNSVYLQMKGLRAEDTAVYYCARDGGYNILTAYYHAPSYWGQGTLVTVSS
VL: QSALTQPASVSGSPGQSITISCTGTSSDVGGYNFVSWYRQYPGKAPQLMIYDVSRRPSGDSDRFSGSKSGNTASLTISGLQAEDEAEYHCSSYTGRSPYVVFGGGTKVTVL
B2: NIV-13 Fab (Fab, V domains shown)
VH: EVQLLESGGGLVQPGGSLRLSCAASGFTFSRYALSWVRQAPGKGLEWVSAISGAAITTYYADSVKGRFTISRDDSRNTLFMQMDSLRAEDTAVYYCAKGDYYDSSGYLAEYFPHWGQGTLVTVSS
VL: SYELTQPPSVSVSPGQTARITCFADALPKQHAYWYQQKAGQAPVLVIFKDTERPSGIPKRFSGSRSGATVTLTISGVQAEDEADYYCQSTDISGVLFGGGTKLTVL
B3: NIV-11 Fab (Fab, V domains shown)
VH: QLVQSGPEVKKPGTSVKVSCKASGFTFYYSAVQWVRQARGQRLEWLGWMAVGSGKANYAQKFQERLTLTRDMSTSTAYMELSSLRSEDTAVYYCAAPNCTGGSCYDGFNLWGQGTVVTVSS
VL: EIVLTQSPGTLSLSPGDRAILSCRASQTVNSNYLAWYQQKPGQAPRLLIYGTSSRATGIPDRFSGSGSGTDFTLTISRLEPEDFAVYYCQQYGSSPWLFGQGTKVEIK
B4: NIV-8 Fab (Fab, V domains shown)
VH: EVQLVESGGGVVQPGRSLRLSCAASGFKFSKFAMHWVRQAPGKGPEWVAVISYDGNQYHSADSVKGRFTISRDNSFNTLYLQMNSLGPEDTAVYYCARDGPDTSGYYANIYFDFWGQGTLVTVSS
VL: QSVLTQPPSVSGAPGQRVTISCTGSSSNIGAGYDVHWYQQLPGRAPKLLIFDNNNRPSGVPDRFSGSKSGTSASLAITGLQTEDEAYYYCQSYDNSLILAVFGGGTKVTVL

For the test, the target named is SARS-CoV-2 spike receptor-binding domain, ancestral (amino acids 331-529), biotinylated (SARS-CoV-2, ancestral (Wuhan), UniProt P0DTC2, biotin (RBD expression vector co-expressed with BirA-Flag, 100 μM biotin added)). The test can be described thus: BLI. Particulars: both partners purified.
B1: binding was put at a Kd of 5.42 pM, the dissociation rate constant (koff) was 1.24e-06 s⁻¹ and the kon amounted to 223000 M⁻¹ s⁻¹.

B2 displayed a Kd of 7.33 pM, a koff of 1.19e-06 s⁻¹ and an on-rate (kon) of 163000 M⁻¹ s⁻¹.

Molecule B3 registered a Kd of 20.8 pM, a koff of 1.12e-06 s⁻¹ and a kon of 53600 M⁻¹ s⁻¹.

B4 displayed an equilibrium dissociation constant (Kd) of 10.9 pM, a koff of 1.15e-06 s⁻¹ and a kon of 106000 M⁻¹ s⁻¹.
